Ends that are not written are not given here. * marks the point of attachment. C16 diacid = O=C(O)CCCCCCCCCCCCCCC(=O)*
T1: human GIP receptor (human, UniProt P48546 22-466)
T1 sequence (looked up): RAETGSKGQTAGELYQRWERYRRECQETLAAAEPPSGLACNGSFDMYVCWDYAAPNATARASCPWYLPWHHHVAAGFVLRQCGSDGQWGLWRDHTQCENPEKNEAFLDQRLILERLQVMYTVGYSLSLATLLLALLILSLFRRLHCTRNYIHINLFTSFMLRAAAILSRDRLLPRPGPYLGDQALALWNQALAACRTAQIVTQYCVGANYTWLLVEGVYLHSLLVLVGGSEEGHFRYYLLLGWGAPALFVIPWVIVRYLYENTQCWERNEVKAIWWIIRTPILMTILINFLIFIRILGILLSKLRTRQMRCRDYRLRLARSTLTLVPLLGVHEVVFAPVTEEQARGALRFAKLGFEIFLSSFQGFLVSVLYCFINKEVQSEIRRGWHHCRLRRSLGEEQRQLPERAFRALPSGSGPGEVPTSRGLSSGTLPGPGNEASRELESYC


Target: T1, human GIP receptor
Assay: cell-based or functional assay

Row | Binder | cAMP agonism, EC50 (log) | cAMP agonism, Emax | cAMP agonism, nM (EC50) | cAMP antagonism, log (IC50) | cAMP antagonism, nM (IC50)
1 | EGK(C16 diacid)FISDYSIAMDKIHQQDFVNWLLAQK-NH2 (N-terminus assumed; SMILES CC[C@H](C)[C@H](NC(=O)[C@H](CO)NC(=O)[C@H](Cc1ccc(O)cc1)NC(=O)[C@H](CC(=O)O)NC(=O)[C@H](CO)NC(=O)[C@@H](NC(=O)[C@H](Cc1ccccc1)NC(=O)[C@H](CCCCNC(=O)CCCCCCCCCCCCCCC(=O)O)NC(=O)CNC(=O)[C@@H](N)CCC(=O)O)[C@@H](C)CC)C(=O)N[C@@H](C)C(=O)N[C@@H](CCSC)C(=O)N[C@@H](CC(=O)O)C(=O)N[C@@H](CCCCN)C(=O)N[C@H](C(=O)N[C@@H](Cc1c[nH]cn1)C(=O)N[C@@H](CCC(N)=O)C(=O)N[C@@H](CCC(N)=O)C(=O)N[C@@H](CC(=O)O)C(=O)N[C@@H](Cc1ccccc1)C(=O)N[C@H](C(=O)N[C@@H](CC(N)=O)C(=O)N[C@@H](Cc1c[nH]c2ccccc12)C(=O)N[C@@H](CC(C)C)C(=O)N[C@@H](CC(C)C)C(=O)N[C@@H](C)C(=O)N[C@@H](CCC(N)=O)C(=O)N[C@@H](CCCCN)C(N)=O)C(C)C)[C@@H](C)CC) [AT296 [hGIP(3-30)NH2[T5K]-C16diacid/5]] | -8.6 log M | 6.7% | 2.6 nM | -7.8 log M | 14 nM
2 | EGTKISDYSIAMDKIHQQDFVNWLLAQK (C16-diacid (1,16-hexadecanedioic acid) on Lys 6 (GIP numbering); C-terminal amide) [AT297 [hGIP(3-30)NH2[F6K]-C16diacid/6]] | -7 log M | 19% | 9 nM | -6.2 log M | 603 nM
3 | EGTFK(C16 diacid)SDYSIAMDKIHQQDFVNWLLAQK-NH2 (N-terminus assumed; SMILES CC[C@H](C)[C@H](NC(=O)[C@H](CO)NC(=O)[C@H](Cc1ccc(O)cc1)NC(=O)[C@H](CC(=O)O)NC(=O)[C@H](CO)NC(=O)[C@H](CCCCNC(=O)CCCCCCCCCCCCCCC(=O)O)NC(=O)[C@H](Cc1ccccc1)NC(=O)[C@@H](NC(=O)CNC(=O)[C@@H](N)CCC(=O)O)[C@@H](C)O)C(=O)N[C@@H](C)C(=O)N[C@@H](CCSC)C(=O)N[C@@H](CC(=O)O)C(=O)N[C@@H](CCCCN)C(=O)N[C@H](C(=O)N[C@@H](Cc1c[nH]cn1)C(=O)N[C@@H](CCC(N)=O)C(=O)N[C@@H](CCC(N)=O)C(=O)N[C@@H](CC(=O)O)C(=O)N[C@@H](Cc1ccccc1)C(=O)N[C@H](C(=O)N[C@@H](CC(N)=O)C(=O)N[C@@H](Cc1c[nH]c2ccccc12)C(=O)N[C@@H](CC(C)C)C(=O)N[C@@H](CC(C)C)C(=O)N[C@@H](C)C(=O)N[C@@H](CCC(N)=O)C(=O)N[C@@H](CCCCN)C(N)=O)C(C)C)[C@@H](C)CC) [AT298 [hGIP(3-30)NH2[I7K]-C16diacid/7]] | – | – | – | -7.5 log M | 33 nM
4 | EGTFIK(C16 diacid)DYSIAMDKIHQQDFVNWLLAQK-NH2 (N-terminus assumed; SMILES CC[C@H](C)[C@H](NC(=O)[C@H](CO)NC(=O)[C@H](Cc1ccc(O)cc1)NC(=O)[C@H](CC(=O)O)NC(=O)[C@H](CCCCNC(=O)CCCCCCCCCCCCCCC(=O)O)NC(=O)[C@@H](NC(=O)[C@H](Cc1ccccc1)NC(=O)[C@@H](NC(=O)CNC(=O)[C@@H](N)CCC(=O)O)[C@@H](C)O)[C@@H](C)CC)C(=O)N[C@@H](C)C(=O)N[C@@H](CCSC)C(=O)N[C@@H](CC(=O)O)C(=O)N[C@@H](CCCCN)C(=O)N[C@H](C(=O)N[C@@H](Cc1c[nH]cn1)C(=O)N[C@@H](CCC(N)=O)C(=O)N[C@@H](CCC(N)=O)C(=O)N[C@@H](CC(=O)O)C(=O)N[C@@H](Cc1ccccc1)C(=O)N[C@H](C(=O)N[C@@H](CC(N)=O)C(=O)N[C@@H](Cc1c[nH]c2ccccc12)C(=O)N[C@@H](CC(C)C)C(=O)N[C@@H](CC(C)C)C(=O)N[C@@H](C)C(=O)N[C@@H](CCC(N)=O)C(=O)N[C@@H](CCCCN)C(N)=O)C(C)C)[C@@H](C)CC) [AT299 [hGIP(3-30)NH2[S8K]-C16diacid/8]] | -7.8 log M | 15.2% | 15 nM | -6.7 log M | 199 nM
5 | EGTFISK(C16 diacid)YSIAMDKIHQQDFVNWLLAQK-NH2 (N-terminus assumed; SMILES CC[C@H](C)[C@H](NC(=O)[C@H](CO)NC(=O)[C@H](Cc1ccc(O)cc1)NC(=O)[C@H](CCCCNC(=O)CCCCCCCCCCCCCCC(=O)O)NC(=O)[C@H](CO)NC(=O)[C@@H](NC(=O)[C@H](Cc1ccccc1)NC(=O)[C@@H](NC(=O)CNC(=O)[C@@H](N)CCC(=O)O)[C@@H](C)O)[C@@H](C)CC)C(=O)N[C@@H](C)C(=O)N[C@@H](CCSC)C(=O)N[C@@H](CC(=O)O)C(=O)N[C@@H](CCCCN)C(=O)N[C@H](C(=O)N[C@@H](Cc1c[nH]cn1)C(=O)N[C@@H](CCC(N)=O)C(=O)N[C@@H](CCC(N)=O)C(=O)N[C@@H](CC(=O)O)C(=O)N[C@@H](Cc1ccccc1)C(=O)N[C@H](C(=O)N[C@@H](CC(N)=O)C(=O)N[C@@H](Cc1c[nH]c2ccccc12)C(=O)N[C@@H](CC(C)C)C(=O)N[C@@H](CC(C)C)C(=O)N[C@@H](C)C(=O)N[C@@H](CCC(N)=O)C(=O)N[C@@H](CCCCN)C(N)=O)C(C)C)[C@@H](C)CC) [AT300 [hGIP(3-30)NH2[D9K]-C16diacid/9]] | – | – | – | -7.7 log M | 22 nM
6 | EGTFISDK(C16 diacid)SIAMDKIHQQDFVNWLLAQK-NH2 (N-terminus assumed; SMILES CC[C@H](C)[C@H](NC(=O)[C@H](CO)NC(=O)[C@H](CCCCNC(=O)CCCCCCCCCCCCCCC(=O)O)NC(=O)[C@H](CC(=O)O)NC(=O)[C@H](CO)NC(=O)[C@@H](NC(=O)[C@H](Cc1ccccc1)NC(=O)[C@@H](NC(=O)CNC(=O)[C@@H](N)CCC(=O)O)[C@@H](C)O)[C@@H](C)CC)C(=O)N[C@@H](C)C(=O)N[C@@H](CCSC)C(=O)N[C@@H](CC(=O)O)C(=O)N[C@@H](CCCCN)C(=O)N[C@H](C(=O)N[C@@H](Cc1c[nH]cn1)C(=O)N[C@@H](CCC(N)=O)C(=O)N[C@@H](CCC(N)=O)C(=O)N[C@@H](CC(=O)O)C(=O)N[C@@H](Cc1ccccc1)C(=O)N[C@H](C(=O)N[C@@H](CC(N)=O)C(=O)N[C@@H](Cc1c[nH]c2ccccc12)C(=O)N[C@@H](CC(C)C)C(=O)N[C@@H](CC(C)C)C(=O)N[C@@H](C)C(=O)N[C@@H](CCC(N)=O)C(=O)N[C@@H](CCCCN)C(N)=O)C(C)C)[C@@H](C)CC) [AT301 [hGIP(3-30)NH2[Y10K]-C16diacid/10]] | -7.9 log M | 8.5% | 12 nM | -6.8 log M | 163 nM
